# In patent publication US20250115669A1, “FGFR1/KLB Targeting Agonistic Antigen-Binding Proteins and Conjugates Thereof with GLP-1R Agonistic Peptides” (SANOFI, priority 2020, published 2025):
# T1: human beta-Klotho (Homo sapiens, UniProt Q86Z14)
# T1 sequence (Q86Z14 1-1044): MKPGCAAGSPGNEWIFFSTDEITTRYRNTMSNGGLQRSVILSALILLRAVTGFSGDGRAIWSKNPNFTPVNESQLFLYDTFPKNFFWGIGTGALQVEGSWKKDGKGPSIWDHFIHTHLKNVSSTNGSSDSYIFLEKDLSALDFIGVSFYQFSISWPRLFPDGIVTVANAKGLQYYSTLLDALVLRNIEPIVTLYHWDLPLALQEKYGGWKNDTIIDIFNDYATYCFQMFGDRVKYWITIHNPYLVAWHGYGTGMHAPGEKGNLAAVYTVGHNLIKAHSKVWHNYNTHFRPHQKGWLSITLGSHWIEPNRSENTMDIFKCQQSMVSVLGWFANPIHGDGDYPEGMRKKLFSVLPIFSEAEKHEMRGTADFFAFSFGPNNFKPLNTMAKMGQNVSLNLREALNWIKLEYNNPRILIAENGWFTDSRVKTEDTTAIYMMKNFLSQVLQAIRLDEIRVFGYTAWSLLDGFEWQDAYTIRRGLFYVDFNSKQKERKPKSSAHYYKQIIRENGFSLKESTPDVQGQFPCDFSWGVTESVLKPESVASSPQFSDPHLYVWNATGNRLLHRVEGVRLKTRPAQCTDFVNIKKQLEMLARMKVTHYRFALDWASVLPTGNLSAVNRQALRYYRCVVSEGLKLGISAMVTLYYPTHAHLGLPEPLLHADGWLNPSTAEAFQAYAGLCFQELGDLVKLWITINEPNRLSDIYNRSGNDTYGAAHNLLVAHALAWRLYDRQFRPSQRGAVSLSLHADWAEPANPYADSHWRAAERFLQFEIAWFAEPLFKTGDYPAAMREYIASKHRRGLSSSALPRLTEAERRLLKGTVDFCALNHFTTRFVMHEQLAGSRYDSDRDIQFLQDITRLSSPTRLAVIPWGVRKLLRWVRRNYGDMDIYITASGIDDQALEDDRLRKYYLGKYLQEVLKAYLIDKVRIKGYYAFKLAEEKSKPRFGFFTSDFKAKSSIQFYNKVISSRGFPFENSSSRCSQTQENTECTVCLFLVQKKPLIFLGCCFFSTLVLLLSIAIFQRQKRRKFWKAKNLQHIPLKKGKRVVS
# Molecular target: T1, human beta-Klotho
# Test: SPR off-rate screening of antibody mutants (human beta-Klotho captured by anti-His antibody)
# Assay type: binding
# Conditions: mean, n=3
# Experimental: Screening of antibody mutants for binding to human beta-Klotho was determined in a different SPR assay set up. Human beta-Klotho was affinity captured by an anti-His antibody (from His capture kit, GE Healthcare) that was immobilized to a series S CM5 chip (GE Healthcare) by amine reactive coupling as described above. The antibody samples were used as analytes at 50 nmol/L concentration. Association time was 240 sec and dissociation time was 300 sec. Chip surfaces were regenerated using the regeneration solution supplied with the His capture kit. The off-rates (kd) were determined using single exponential fitting in the Biacore 8K Evaluation Software version 1.1.1.7442 (GE Healthcare).
row,koff human KLB,Molecule
1,invalid fit,"Ab0319: IgG4 PE; 16H7 VL (D49Y, D50E, D91T, N93E); 16H7 VH (M34V, I83T, D109E) (antibody) VH: QVTLKESGPVLVKPTETLTLTCTVSGFSLNNARVGVSWIRQPPGKALEWLAHIFSNDEKSYSTSLKSRLTISKDTSKSQVVLTMTNMDPVDTATYYCARSVVTGGYYYEGMDVWGQGTTVTVSS light: SYVLTQPPSVSVAPGQTARITCGGNNIGSESVHWYQQKPGQAPVLVVYYESDRPSGIPERFSGSNSGNTATLTISRVEAGDEADYYCQVWTGESDHVVFGGGTKLTVLGQPKANPTVTLFPPSSEELQANKATLVCLISDFYPGAVTVAWKADGSPVKAGVETTKPSKQSNNKYAASSYLSLTPEQWKSHRSYSCQVTHEGSTVEKTVAPTECS"
2,invalid fit,"Ab0320: IgG4 PE; 16H7 VL (N25S, D49Y, D50E, D91T, N93E); 16H7 VH (M34V, I83T, D109E) (antibody) VH: QVTLKESGPVLVKPTETLTLTCTVSGFSLNNARVGVSWIRQPPGKALEWLAHIFSNDEKSYSTSLKSRLTISKDTSKSQVVLTMTNMDPVDTATYYCARSVVTGGYYYEGMDVWGQGTTVTVSS light: SYVLTQPPSVSVAPGQTARITCGGSNIGSESVHWYQQKPGQAPVLVVYYESDRPSGIPERFSGSNSGNTATLTISRVEAGDEADYYCQVWTGESDHVVFGGGTKLTVLGQPKANPTVTLFPPSSEELQANKATLVCLISDFYPGAVTVAWKADGSPVKAGVETTKPSKQSNNKYAASSYLSLTPEQWKSHRSYSCQVTHEGSTVEKTVAPTECS"
3,no binding,"Ab0377: IgG4 PE; 16H7 VL (Y48del, D95V, W90F); 16H7 VH (M34V, F54W, I83T, D109E) (antibody) VH: QVTLKESGPVLVKPTETLTLTCTVSGFSLNNARVGVSWIRQPPGKALEWLAHIWSNDEKSYSTSLKSRLTISKDTSKSQVVLTMTNMDPVDTATYYCARSVVTGGYYYEGMDVWGQGTTVTVSS light: SYVLTQPPSVSVAPGQTARITCGGNNIGSESVHWYQQKPGQAPVLVVDDSDRPSGIPERFSGSNSGNTATLTISRVEAGDEADYYCQVFDGNSVHVVFGGGTKLTVLGQPKANPTVTLFPPSSEELQANKATLVCLISDFYPGAVTVAWKADGSPVKAGVETTKPSKQSNNKYAASSYLSLTPEQWKSHRSYSCQVTHEGSTVEKTVAPTECS"
4,no binding,"Ab0372: IgG4 PE; 16H7 VL (Y48del, D95E, W90H, S1C, S94C); 16H7 VH (M34V, H52W, I83T, D109E) (antibody) VH: QVTLKESGPVLVKPTETLTLTCTVSGFSLNNARVGVSWIRQPPGKALEWLAWIFSNDEKSYSTSLKSRLTISKDTSKSQVVLTMTNMDPVDTATYYCARSVVTGGYYYEGMDVWGQGTTVTVSS light: CYVLTQPPSVSVAPGQTARITCGGNNIGSESVHWYQQKPGQAPVLVVDDSDRPSGIPERFSGSNSGNTATLTISRVEAGDEADYYCQVHDGNCEHVVFGGGTKLTVLGQPKANPTVTLFPPSSEELQANKATLVCLISDFYPGAVTVAWKADGSPVKAGVETTKPSKQSNNKYAASSYLSLTPEQWKSHRSYSCQVTHEGSTVEKTVAPTECS"
5,no binding,"Ab0373: IgG4 PE; 16H7 VL (Y48del, D95E, W90H, S94C, H96C); 16H7 VH (M34V, H52W, I83T, D109E) (antibody) VH: QVTLKESGPVLVKPTETLTLTCTVSGFSLNNARVGVSWIRQPPGKALEWLAWIFSNDEKSYSTSLKSRLTISKDTSKSQVVLTMTNMDPVDTATYYCARSVVTGGYYYEGMDVWGQGTTVTVSS light: SYVLTQPPSVSVAPGQTARITCGGNNIGSESVHWYQQKPGQAPVLVVDDSDRPSGIPERFSGSNSGNTATLTISRVEAGDEADYYCQVHDGNCECVVFGGGTKLTVLGQPKANPTVTLFPPSSEELQANKATLVCLISDFYPGAVTVAWKADGSPVKAGVETTKPSKQSNNKYAASSYLSLTPEQWKSHRSYSCQVTHEGSTVEKTVAPTECS"
6,no binding,"Ab0379: IgG4 PE; 16H7 VL (Y48del, D95V, W90F, S1C, S94C); 16H7 VH (M34V, F54W, I83T, D109E) (antibody) VH: QVTLKESGPVLVKPTETLTLTCTVSGFSLNNARVGVSWIRQPPGKALEWLAHIWSNDEKSYSTSLKSRLTISKDTSKSQVVLTMTNMDPVDTATYYCARSVVTGGYYYEGMDVWGQGTTVTVSS light: CYVLTQPPSVSVAPGQTARITCGGNNIGSESVHWYQQKPGQAPVLVVDDSDRPSGIPERFSGSNSGNTATLTISRVEAGDEADYYCQVFDGNCVHVVFGGGTKLTVLGQPKANPTVTLFPPSSEELQANKATLVCLISDFYPGAVTVAWKADGSPVKAGVETTKPSKQSNNKYAASSYLSLTPEQWKSHRSYSCQVTHEGSTVEKTVAPTECS"
7,no binding,"Ab0374: IgG4 PE; 16H7 VL (Y48del, D95E, W90F); 16H7 VH (M34V, F54W, I83T, D109E) (antibody) VH: QVTLKESGPVLVKPTETLTLTCTVSGFSLNNARVGVSWIRQPPGKALEWLAHIWSNDEKSYSTSLKSRLTISKDTSKSQVVLTMTNMDPVDTATYYCARSVVTGGYYYEGMDVWGQGTTVTVSS light: SYVLTQPPSVSVAPGQTARITCGGNNIGSESVHWYQQKPGQAPVLVVDDSDRPSGIPERFSGSNSGNTATLTISRVEAGDEADYYCQVFDGNSEHVVFGGGTKLTVLGQPKANPTVTLFPPSSEELQANKATLVCLISDFYPGAVTVAWKADGSPVKAGVETTKPSKQSNNKYAASSYLSLTPEQWKSHRSYSCQVTHEGSTVEKTVAPTECS"
8,no binding,"Ab0378: IgG4 PE; 16H7 VL (Y48del, D95V, W90F); 16H7 VH (M34V, H52S, F54W, I83T, D109E) (antibody) VH: QVTLKESGPVLVKPTETLTLTCTVSGFSLNNARVGVSWIRQPPGKALEWLASIWSNDEKSYSTSLKSRLTISKDTSKSQVVLTMTNMDPVDTATYYCARSVVTGGYYYEGMDVWGQGTTVTVSS light: SYVLTQPPSVSVAPGQTARITCGGNNIGSESVHWYQQKPGQAPVLVVDDSDRPSGIPERFSGSNSGNTATLTISRVEAGDEADYYCQVFDGNSVHVVFGGGTKLTVLGQPKANPTVTLFPPSSEELQANKATLVCLISDFYPGAVTVAWKADGSPVKAGVETTKPSKQSNNKYAASSYLSLTPEQWKSHRSYSCQVTHEGSTVEKTVAPTECS"
9,no binding,"Ab0371: IgG4 PE; 16H7 VL (Y48del, D95E, W90H); 16H7 VH (M34V, H52W, I83T, D109E) (antibody) VH: QVTLKESGPVLVKPTETLTLTCTVSGFSLNNARVGVSWIRQPPGKALEWLAWIFSNDEKSYSTSLKSRLTISKDTSKSQVVLTMTNMDPVDTATYYCARSVVTGGYYYEGMDVWGQGTTVTVSS light: SYVLTQPPSVSVAPGQTARITCGGNNIGSESVHWYQQKPGQAPVLVVDDSDRPSGIPERFSGSNSGNTATLTISRVEAGDEADYYCQVHDGNSEHVVFGGGTKLTVLGQPKANPTVTLFPPSSEELQANKATLVCLISDFYPGAVTVAWKADGSPVKAGVETTKPSKQSNNKYAASSYLSLTPEQWKSHRSYSCQVTHEGSTVEKTVAPTECS"
10,no binding,"Ab0376: IgG4 PE; 16H7 VL (Y48del, D95E, W90F, S94C, H96C); 16H7 VH (M34V, F54W, I83T, D109E) (antibody) VH: QVTLKESGPVLVKPTETLTLTCTVSGFSLNNARVGVSWIRQPPGKALEWLAHIWSNDEKSYSTSLKSRLTISKDTSKSQVVLTMTNMDPVDTATYYCARSVVTGGYYYEGMDVWGQGTTVTVSS light: SYVLTQPPSVSVAPGQTARITCGGNNIGSESVHWYQQKPGQAPVLVVDDSDRPSGIPERFSGSNSGNTATLTISRVEAGDEADYYCQVFDGNCECVVFGGGTKLTVLGQPKANPTVTLFPPSSEELQANKATLVCLISDFYPGAVTVAWKADGSPVKAGVETTKPSKQSNNKYAASSYLSLTPEQWKSHRSYSCQVTHEGSTVEKTVAPTECS"
